Legend:
[1] = test system: HA-tagged full-length FIP200 (pKH3-FIP200, residues 1-1591)
[2] = test system: GST fusion protein containing CT-FIP (pGEX-CT-FIP)

FAK immunoprecipitated from Chinese hamster ovary cells overexpressing FAK, sequence (Q05397 2-1052): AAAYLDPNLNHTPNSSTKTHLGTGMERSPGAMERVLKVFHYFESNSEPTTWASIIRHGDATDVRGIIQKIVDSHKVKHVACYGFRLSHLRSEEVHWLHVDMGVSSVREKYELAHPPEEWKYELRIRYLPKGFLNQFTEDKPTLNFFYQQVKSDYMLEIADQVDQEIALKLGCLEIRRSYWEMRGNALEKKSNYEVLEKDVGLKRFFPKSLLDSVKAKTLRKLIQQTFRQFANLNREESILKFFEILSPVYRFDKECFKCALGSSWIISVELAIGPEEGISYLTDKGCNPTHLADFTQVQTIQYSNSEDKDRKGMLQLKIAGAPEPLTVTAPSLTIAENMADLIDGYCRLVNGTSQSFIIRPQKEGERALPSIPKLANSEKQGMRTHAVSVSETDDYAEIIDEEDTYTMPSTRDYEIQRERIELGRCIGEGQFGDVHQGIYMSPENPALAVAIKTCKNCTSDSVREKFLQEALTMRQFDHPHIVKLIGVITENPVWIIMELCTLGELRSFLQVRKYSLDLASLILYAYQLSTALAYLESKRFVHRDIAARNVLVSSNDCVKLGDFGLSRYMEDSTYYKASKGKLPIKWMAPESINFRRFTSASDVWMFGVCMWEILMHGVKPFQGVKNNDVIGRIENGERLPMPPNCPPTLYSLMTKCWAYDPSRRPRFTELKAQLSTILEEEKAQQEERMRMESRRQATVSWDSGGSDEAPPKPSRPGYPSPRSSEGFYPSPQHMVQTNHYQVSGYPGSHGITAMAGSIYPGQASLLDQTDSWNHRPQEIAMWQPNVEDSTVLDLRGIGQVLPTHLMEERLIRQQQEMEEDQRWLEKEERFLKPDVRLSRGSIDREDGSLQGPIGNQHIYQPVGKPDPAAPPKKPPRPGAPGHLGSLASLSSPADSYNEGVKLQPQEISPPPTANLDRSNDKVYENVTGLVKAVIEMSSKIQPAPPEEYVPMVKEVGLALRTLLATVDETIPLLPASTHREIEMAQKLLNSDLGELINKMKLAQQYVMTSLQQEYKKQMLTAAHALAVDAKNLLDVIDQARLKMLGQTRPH
FAK expressed from an expression vector encoding FAK (tag not stated), sequence (Q05397 2-1052): as above

Substance	rescue of BrdU incorporation (NIH3T3) [1]	FAK kinase activity (in vitro kinase assay, E4Y1 as exogenous substrate) [2]	FAK kinase activity (in vitro kinase assay, E4Y1 as exogenous substrate) (GST alone [GST: P08515])
FAK expressed from an expression vector encoding FAK (tag not stated)	it rescued the inhibition of BrdU incorporation by FIP200 to the control levels	–	–
FAK immunoprecipitated from Chinese hamster ovary cells overexpressing FAK	–	at lower concentrations (e.g., <5 pmol/reaction), GST fusion proteins containing NT-FIP or MD-FIP reduced FAK kinase activity, whereas CT-FIP did not	GST alone did not have any effect

From patent US20050037963
